Primed or numbered codes have the meaning given here. Where no end group is shown, it is not given here. Cy5 = Cy5 fluorophore (fluorescent dye); NODAGA′ = chelator
Target: NRP-1 recombinant chimeric protein ( (recombinant human/rat NRP-1 …, UniProt O14786 22-856))
Assay: ELISA; competition with biotinylated VEGF-165

NRP-1 recombinant chimeric protein (, sequence (O14786 22-856, change not shown): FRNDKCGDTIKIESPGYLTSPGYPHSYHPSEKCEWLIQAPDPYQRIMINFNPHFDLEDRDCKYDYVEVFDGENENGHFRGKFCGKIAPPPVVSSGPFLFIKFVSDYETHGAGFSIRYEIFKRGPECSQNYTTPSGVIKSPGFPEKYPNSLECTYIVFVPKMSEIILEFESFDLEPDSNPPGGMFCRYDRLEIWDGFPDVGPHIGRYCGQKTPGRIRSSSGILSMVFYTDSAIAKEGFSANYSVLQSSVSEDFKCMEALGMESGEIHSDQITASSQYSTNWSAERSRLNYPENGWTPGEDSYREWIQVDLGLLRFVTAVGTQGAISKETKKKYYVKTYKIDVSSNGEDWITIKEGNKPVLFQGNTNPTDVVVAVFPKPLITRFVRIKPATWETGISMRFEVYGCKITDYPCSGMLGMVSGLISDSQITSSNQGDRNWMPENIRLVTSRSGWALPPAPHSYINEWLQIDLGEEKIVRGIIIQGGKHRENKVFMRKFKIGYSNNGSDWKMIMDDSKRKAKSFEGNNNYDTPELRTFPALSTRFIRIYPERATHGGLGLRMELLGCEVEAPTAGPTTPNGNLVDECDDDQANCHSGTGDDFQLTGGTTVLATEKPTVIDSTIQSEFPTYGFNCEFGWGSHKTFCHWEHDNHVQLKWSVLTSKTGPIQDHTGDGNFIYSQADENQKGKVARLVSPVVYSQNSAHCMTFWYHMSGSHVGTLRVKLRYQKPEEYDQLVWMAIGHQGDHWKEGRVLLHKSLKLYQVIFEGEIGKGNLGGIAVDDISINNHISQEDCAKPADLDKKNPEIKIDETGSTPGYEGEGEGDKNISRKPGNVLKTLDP

Binder	IC50 [nM]
{NODAGA′}-K(Cy5)DKPPR (also: NODAGA complexed with natGa) [^natGa-NODAGA-K(Cy5)DKPPR]	100
KDKPPR [KDKPPR peptide]	2000

Reference: paper PMC8659110 (2021)
